# T1: CCL3/MIP-1 alpha (UniProt P10147 24-92)
# T1 construct: also called MIP-1α; 125I-CCL3/MIP-1 alpha
# T1 sequence (looked up): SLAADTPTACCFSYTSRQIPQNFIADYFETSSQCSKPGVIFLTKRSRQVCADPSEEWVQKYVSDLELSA
# B1: ChBP-59-HIS (recombinant histidine-tagged ChBP-59, mature form) (other)
# chain: EDDEDYGDLGGCPFLVAENKTGYPTIVACKQDCNGTTETAPNGTRCFSIGDEGLRRMTANLPYDCPLGQCSNGDCIPKETYEVCYRRNWRDKKNHHHHHH
# Biological target: T1, CCL3/MIP-1 alpha
# Assay: SPA competition: ChBP-59-HIS (insect cells) titrated against radiolabeled CCL3/MIP-1 alpha and bead-immobilized CCR5
binder,measurement,value
B1,EC50,0.012 nM
